Sequences and labels used below:
B1: FLAG-, HA-tagged wild-type Bag-1L [human] / androgen receptor, endogenous in LNCaP cells [human (endogenous in LNCaP)] (parent complex)
chain 1: MAQRGGARRPRGDRERLGSRLRALRPGREPRQSEPPAQRGPPPSGRPPARSTASGHDRPTRGAAAGARRPRMKKKTRRRSTRSEELTRSEELTLSEEATWSEEATQSEEATQGEEMNRSQEVTRDEESTRSEEVTREEMAAAGLTVTVTHSNEKHDLHVTSQQGSSEPVVQDLAQVVEEVIGVPQSFQKLIFKGKSLKEMETPLSALGIQDGCRVMLIGKKNSPQEEVELKKLKHLEKSVEKIADQLEELNKELTGIQQGFLPKDLQAEALCKLDRRVKATIEQFMKILEEIDTLILPENFKDSRLKRKGLVKKVQAFLAECDTVEQNICQETERLQSTNFALAE
chain 2: MEVQLGLGRVYPRPPSKTYRGAFQNLFQSVREVIQNPGPRHPEAASAAPPGASLLLLQQQQQQQQQQQQQQQQQQQQQQQETSPRQQQQQQGEDGSPQAHRRGPTGYLVLDEEQQPSQPQSALECHPERGCVPEPGAAVAASKGLPQQLPAPPDEDDSAAPSTLSLLGPTFPGLSSCSADLKDILSEASTMQLLQQQQQEAVSEGSSSGRAREASGAPTSSKDNYLGGTSTISDNAKELCKAVSVSMGLGVEALEHLSPGEQLRGDCMYAPLLGVPPAVRPTPCAPLAECKGSLLDDSAGKSTEDTAEYSPFKGGYTKGLEGESLGCSGSAAAGSSGTLELPSTLSLYKSGALDEAAAYQSRDYYNFPLALAGPPPPPPPPHPHARIKLENPLDYGSAWAAAAAQCRYGDLASLHGAGAAGPGSGSPSAAASSSWHTLFTAEEGQLYGPCGGGGGGGGGGGGGGGGGGGGGGGEAGAVAPYGYTRPPQGLAGQESDFTAPDVWYPGGMVSRVPYPSPTCVKSEMGPWMDSYSGPYGDMRLETARDHVLPIDYYFPPQKTCLICGDEASGCHYGALTCGSCKVFFKRAAEGKQKYLCASRNDCTIDKFRRKNCPSCRLRKCYEAGMTLGARKLKKLGNLKLQEEGEASSTTSPTEETTQKLTVSHIEGYECQPIFLNVLEAIEPGVVCAGHDNNQPDSFAALLSSLNELGERQLVHVVKWAKALPGFRNLHVDDQMAVIQYSWMGLMVFAMGWRSFTNVNSRMLYFAPDLVFNEYRMHKSRMYSQCVRMRHLSQEFGWLQITPQEFLCMKALLLFSIIPVDGLKNQKFFDELRMNYIKELDRIIACKRKNPTSCSRRFYQLTKLLDSVQPIARELHQFTFDLLIKSHMVSVDFPEMMAEIISVQVPKILSGKVKPIYFHTQ

The variants in the experiment derive from B1. The experiment in a line: SILAC RIME; LNCaP cells stably expressing FLAG-HA-tagged wild-type or CMut Bag-1L; parent: 21; read off a plot.
As to chain 1 K231A, chain 1 K232A, chain 1 K279A, the response was approximately 19 log2 intensity.

The values are drawn from paper PMC5629025 (2017).
